Source: patent publication US8357701B2, “Galactokinase inhibitors” (University of Miami, priority 2007, dated 2013)

Key:
[1] = system: Nc1ncnc2c1ncn2[C@@H]1O[C@H](COP(=O)(O)OP(=O)(O)OP(=O)(O)O)[C@@H](O)[C@H]1O; assay: purified protein, by the assay type; conditions: other: substrates of purified human GALK
[2] = system: T1, O=C[C@H](O)[C@@H](O)[C@@H](O)[C@H](O)CO; assay: standard pyruvate kinase/lactate dehydrogenase-coupled GALK assay; type: biochemical; conditions: other: substrates of purified human GALK
T1 construct: made in house; host or cells: Escherichia coli HMS174 (DE3), plasmid pET15b
Description: As the percentage of substrate conversion can have significant impact on the accuracy of IC50 determination, the preferred approach is to determine reaction rates at initial velocity (i.e., zero substrate conversion). […] In this assay, the amount of galactose present in the reaction is kept in excess, whereas ATP consumed by the galactokinase reaction is recycled by the pyruvate kinase reaction. As a result, the reaction rates calculated will be close to initial velocity.
As the percentage of substrate conversion can have significant impact on the accuracy of IC50 determination, the preferred approach is to determine reaction rates at initial velocity (i.e., zero substrate conversion). […] The dose response of the selected compounds was analyzed using the standard pyruvate kinase/lactate dehydrogenase-Coupled assay. In this assay, the amount of galactose present in the reaction was kept in excess, whereas ATP consumed by the galactokinase reaction was recycled by the pyruvate kinase reaction. As a result, the reaction rates calculated were close to initial velocity.

human GALK (Homo sapiens)
Km [1]: 42 µM
Km [2]: 210 µM
